Assay results taken from publication PMC5862502, “Coordinated regulation of Arabidopsis microRNA biogenesis and red light signaling through Dicer-like 1 and phytochrome-interacting factor 4”.

Target: T1, PIF4-MBP (phytochrome-interacting factor 4) (Arabidopsis thaliana, UniProt Q8W2F3 1-430)
T1 sequence: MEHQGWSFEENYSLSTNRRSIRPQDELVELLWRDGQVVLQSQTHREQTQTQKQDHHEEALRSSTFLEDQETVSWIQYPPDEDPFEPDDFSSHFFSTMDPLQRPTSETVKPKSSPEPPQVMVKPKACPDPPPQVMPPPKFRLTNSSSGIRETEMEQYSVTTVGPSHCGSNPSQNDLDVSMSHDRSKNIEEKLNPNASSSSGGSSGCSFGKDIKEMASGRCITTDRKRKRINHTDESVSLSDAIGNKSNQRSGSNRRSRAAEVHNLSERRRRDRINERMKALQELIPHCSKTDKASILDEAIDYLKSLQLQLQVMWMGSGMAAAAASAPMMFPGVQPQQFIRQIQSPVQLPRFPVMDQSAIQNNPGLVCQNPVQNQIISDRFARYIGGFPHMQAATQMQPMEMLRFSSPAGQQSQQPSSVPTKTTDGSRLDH
Experiment: EMSA; 1 nM labeled probe; decreasing amounts of PIF4; unlabeled same-sequence competitor in lane 8; LightShift Chemiluminescent EMSA kit buffer (composition not given), 20 ul, 30 min on ice, 1x TBE polyacrylamide gel
Conditions: protein: recombinant; tags: MBP; chain copies: 2; label: 3' biotin on sense strand; blunt

B1: miR160b promoter G-box fragment (dsDNA)
DNA 1: AGACACGTGTAGAAATCTTCTAAACCC
DNA 2: GGGTTTAGAAGATTTCTACACGTGTCT
binding result: binds
